Several values for one entry are separate records, joined by “and”; a condition that tells them apart may be missing. Equal values may be shown once.

For assay [1], the target named is amyloid precursor protein C99 (UniProt P05067). Nature of the assay: SDS-PAGE with Western blot (SDS-stable oligomers); SEC fractions of Ni-purified C99 in E. coli lipid pentyl-inulin nanodiscs (detergent-free), heated in SDS dye, 4-20% gel, detected with antibody 6E10.
Assay [2] shares this target. Description: SDS-PAGE with Western blot (SDS-stable oligomers); whole-cell expression samples of E. coli (0.8 OD600, autoinduction or IPTG), heated 4 min at 90°C in SDS dye, 4-20% gel, detected with antibody 6E10. On the technique in general: Immunoblotting shows a protein as a band on a membrane.

In general, stoichiometry N refers to a count of units in the complex or per binding partner. As to “amyloid precursor protein C99 (from UniProt P05067 672-770) (domain or fragment)”, the stoichiometry N in assay [1] was 3; in assay [2] it was 2 and 3.

These data come from article PMC12363408.
